This passage reports Ki results from US20030087827A1.

In the assay the target is proprotein convertase PC2. Briefly: enzyme inhibition, pERTKR-MCA hydrolysis (fluorescence), competitive Ki.

pKi: −log10 of the molar value.

Chain of proprotein convertase PC2 (P21661 109-637): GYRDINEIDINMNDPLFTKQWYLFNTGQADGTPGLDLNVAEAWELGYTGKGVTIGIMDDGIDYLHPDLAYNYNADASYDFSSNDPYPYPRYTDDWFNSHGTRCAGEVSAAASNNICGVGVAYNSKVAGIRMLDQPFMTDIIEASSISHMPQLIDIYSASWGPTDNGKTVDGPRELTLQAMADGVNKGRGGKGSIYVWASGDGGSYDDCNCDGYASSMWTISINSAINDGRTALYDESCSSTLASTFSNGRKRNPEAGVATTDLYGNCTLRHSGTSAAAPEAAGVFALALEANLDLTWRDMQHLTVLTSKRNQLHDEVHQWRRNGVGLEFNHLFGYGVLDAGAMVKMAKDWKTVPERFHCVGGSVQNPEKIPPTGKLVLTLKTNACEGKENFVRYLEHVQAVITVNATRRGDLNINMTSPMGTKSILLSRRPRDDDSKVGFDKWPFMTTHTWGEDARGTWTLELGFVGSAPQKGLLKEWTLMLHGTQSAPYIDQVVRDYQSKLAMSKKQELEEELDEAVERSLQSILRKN

As for Ac-MRKRRR-NH2 (peptide), the pKi (in general, −log10 of the Ki, conventionally taken in molar units) was 2.82.
